US11278600B2, “Human alpha-galactosidase variants” (Codexis, Inc., priority 2014, dated 2022)
Residue numbers refer to the chain shown, from its start.

B1: 452 (protein)
chain: LDNGLARTPTMGWLHWERFMCNLDCQEEPDSCISEKLFMEMAERMVSEGWKDAGYEYLCIDDCWMAPQRDSEGRLQADPQRFPHGIRQLANYVHSKGLKLGIYADVGNKTCAGFPGSFGYYDIDAQTFADWGVDLLKFDGCYCDSLENLADGYKHMSLALNRTGRSIVYSCEWPLYMWPFQKPNYTEIRQYCNHWRNFADIDDSWKSIKSILDWTSRNQERIVDVAGPGGWNDPDMLVIGNFGLSWDQQVTQMALWAIMAAPLFMSNDLRRISPQAKALLQDKDVIAINQDPLGKQGYQLRKGDNFEVWERPLSGDAWAVAIINRQEIGGPRSYTIPVASLGKGVACNPACFITQLLPVKRQLGFYNWTSRLKSHINPTGTVLLQLENTMQMSLKDLL
modifications: Synthetic Polypeptide sequence of Variant No. 452 of mature Human GLA
B2: 460 (protein)
chain: B1 chain with R271H, L386T
modifications: Synthetic Polypeptide sequence of Variant No. 460 of mature Human GLA
B3: 459 (protein)
chain: B1 chain with R271H, M390H
modifications: Synthetic Polypeptide sequence of Variant No. 459 of mature Human GLA
B4: 465 (protein)
chain: B1 chain with R271H, M390Q
modifications: Synthetic Polypeptide sequence of Variant No. 465 of mature Human GLA
B5: 463 (protein)
chain: B1 chain with R271H, M390T
modifications: Synthetic Polypeptide sequence of Variant No. 463 of mature Human GLA
B6: 455 (protein)
chain: B1 chain with R271H, M392D
modifications: Synthetic Polypeptide sequence of Variant No. 455 of mature Human GLA
B7: 461 (protein)
chain: B1 chain with R271H, M392Q
modifications: Synthetic Polypeptide sequence of Variant No. 461 of mature Human GLA
B8: 453 (protein)
chain: B1 chain with R270L, R271H
modifications: Synthetic Polypeptide sequence of Variant No. 453 of mature Human GLA
B9: 457 (protein)
chain: B1 chain with R271H, M392A
modifications: Synthetic Polypeptide sequence of Variant No. 457 of mature Human GLA
B10: 466 (protein)
chain: B1 chain with R271H, M392E
modifications: Synthetic Polypeptide sequence of Variant No. 466 of mature Human GLA
B11: 367 (protein)
chain: B1 chain with M39R, R271H
modifications: Synthetic Polypeptide sequence of Variant No. 367 of mature Human GLA
B12: 462 (protein)
chain: B1 chain with R271H, Q385L
modifications: Synthetic Polypeptide sequence of Variant No. 462 of mature Human GLA
B13: 456 (protein)
chain: B1 chain with R271H, T389M
modifications: Synthetic Polypeptide sequence of Variant No. 456 of mature Human GLA
B14: 454 (protein)
chain: B1 chain with R271H, M390P
modifications: Synthetic Polypeptide sequence of Variant No. 454 of mature Human GLA
B15: 467 (protein)
chain: B1 chain with R271H, T389S
modifications: Synthetic Polypeptide sequence of Variant No. 467 of mature Human GLA

How the values were obtained:
Type in all cases: biochemical
[1] = HTP-analysis of yeast culture supernatants, no challenge (MUGal hydrolysis); details: activity of the variant/activity of Rd4BB (SEQ ID NO: 15)
In short: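 GLA variants were expressed in INVSc1 yeast grown in SD-Ura broth with glucose at 30° C., and culture supernatants were collected after 66-84 h. Supernatant was mixed with McIlvaine buffer pH 4.8 and MUGal (2 mM stock) in 50 mM citrate, 200 mM KCl, pH 4.6, incubated at 37° C. for 30-180 minutes, then quenched with sodium carbonate.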

[2] = HTP-analysis of supernatants pretreated with base (MUGal hydrolysis); details: activity of the variant/activity of Rd4BB (SEQ ID NO: 15); challenge at pH 9.65
In short: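 Supernatants from INVSc1 yeast expressing GLA variants (SD-Ura, 66-84 h, 30° C) were mixed with McIlvaine buffer pH 7.0-8.2 or 200 mM sodium bicarbonate pH 9.1-9.7 and held 1-18 h at 37° C. Residual activity was then measured on MUGal at pH 4.8/4.3, 37° C, 30-180 min, by fluorescence (Ex 355/Em 448 nm).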

[3] = HTP-analysis of supernatants pretreated with acid (MUGal hydrolysis); details: activity of the variant/activity of Rd4BB (SEQ ID NO: 15); challenge at pH 3.7
In short: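 MUGal hydrolysis was tracked by fluorescence (Ex 355 nm, Em 448 nm) after a 30-180 min reaction at 37° C. in pH 4.8 McIlvaine/citrate buffer, stopped with 1 M sodium carbonate. Beforehand, yeast (INVSc1) culture supernatants carrying GLA variants were held 1-3 h at 37° C. in acidic McIlvaine buffer, pH 3.3-4.3.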

Molecule | Relative Activity of GLA Variants After No Challenge (NC) [1] | Relative Activity of GLA Variants After Challenge at pH 9.65 [2] | Relative Activity of GLA Variants After Challenge at pH 3.7 [3]
B1 | + (0.5 to 1.5 relative activity over Rd4BB (SEQ ID NO: 15)) | + (0.5 to 1.5 relative activity over Rd4BB (SEQ ID NO: 15)) | ++ (>1.5 to 2.5 relative activity over Rd4BB (SEQ ID NO: 15))
B2 | + (0.5 to 1.5 relative activity over Rd4BB (SEQ ID NO: 15)) | + (0.5 to 1.5 relative activity over Rd4BB (SEQ ID NO: 15)) | + (0.5 to 1.5 relative activity over Rd4BB (SEQ ID NO: 15))
B3 | + (0.5 to 1.5 relative activity over Rd4BB (SEQ ID NO: 15)) | + (0.5 to 1.5 relative activity over Rd4BB (SEQ ID NO: 15)) | ++ (>1.5 to 2.5 relative activity over Rd4BB (SEQ ID NO: 15))
B4 | + (0.5 to 1.5 relative activity over Rd4BB (SEQ ID NO: 15)) | + (0.5 to 1.5 relative activity over Rd4BB (SEQ ID NO: 15)) | + (0.5 to 1.5 relative activity over Rd4BB (SEQ ID NO: 15))
B5 | + (0.5 to 1.5 relative activity over Rd4BB (SEQ ID NO: 15)) | + (0.5 to 1.5 relative activity over Rd4BB (SEQ ID NO: 15)) | + (0.5 to 1.5 relative activity over Rd4BB (SEQ ID NO: 15))
B6 | + (0.5 to 1.5 relative activity over Rd4BB (SEQ ID NO: 15)) | + (0.5 to 1.5 relative activity over Rd4BB (SEQ ID NO: 15)) | + (0.5 to 1.5 relative activity over Rd4BB (SEQ ID NO: 15))
B7 | + (0.5 to 1.5 relative activity over Rd4BB (SEQ ID NO: 15)) | + (0.5 to 1.5 relative activity over Rd4BB (SEQ ID NO: 15)) | + (0.5 to 1.5 relative activity over Rd4BB (SEQ ID NO: 15))
B8 | + (0.5 to 1.5 relative activity over Rd4BB (SEQ ID NO: 15)) | − (<0.5 relative activity over Rd4BB (SEQ ID NO: 15)) | − (<0.5 relative activity over Rd4BB (SEQ ID NO: 15))
B9 | + (0.5 to 1.5 relative activity over Rd4BB (SEQ ID NO: 15)) | + (0.5 to 1.5 relative activity over Rd4BB (SEQ ID NO: 15)) | + (0.5 to 1.5 relative activity over Rd4BB (SEQ ID NO: 15))
B10 | + (0.5 to 1.5 relative activity over Rd4BB (SEQ ID NO: 15)) | + (0.5 to 1.5 relative activity over Rd4BB (SEQ ID NO: 15)) | + (0.5 to 1.5 relative activity over Rd4BB (SEQ ID NO: 15))
B11 | + (0.5 to 1.5 relative activity over Rd4BB (SEQ ID NO: 15)) | − (<0.5 relative activity over Rd4BB (SEQ ID NO: 15)) | + (0.5 to 1.5 relative activity over Rd4BB (SEQ ID NO: 15))
B12 | + (0.5 to 1.5 relative activity over Rd4BB (SEQ ID NO: 15)) | + (0.5 to 1.5 relative activity over Rd4BB (SEQ ID NO: 15)) | + (0.5 to 1.5 relative activity over Rd4BB (SEQ ID NO: 15))
B13 | + (0.5 to 1.5 relative activity over Rd4BB (SEQ ID NO: 15)) | + (0.5 to 1.5 relative activity over Rd4BB (SEQ ID NO: 15)) | + (0.5 to 1.5 relative activity over Rd4BB (SEQ ID NO: 15))
B14 | + (0.5 to 1.5 relative activity over Rd4BB (SEQ ID NO: 15)) | + (0.5 to 1.5 relative activity over Rd4BB (SEQ ID NO: 15)) | ++ (>1.5 to 2.5 relative activity over Rd4BB (SEQ ID NO: 15))
B15 | + (0.5 to 1.5 relative activity over Rd4BB (SEQ ID NO: 15)) | + (0.5 to 1.5 relative activity over Rd4BB (SEQ ID NO: 15)) | + (0.5 to 1.5 relative activity over Rd4BB (SEQ ID NO: 15))
